The record followed here is the Immune Epitope Database (IEDB).

Targets include HLA-A*02:01; HLA-A*24:02; HLA-B*08:01; HLA-A*03:01; HLA-A*11:01; HLA-B*07:02; HLA-A*01:01; HLA-B*35:01; HLA-B*51:01; HLA-B*18:01.
What all share (assay): IEDB peptide-MHC binding, purified MHC/competitive/radioactivity; ≥ and ≤ were set here for values at or beyond the usual limits of such assays
Holding throughout (details): source organism: Homo sapiens

Regarding ALARGAGTVPL, the IC50 with HLA-A*02:01 was 29 nM. On the same count and under the same terms, next, ALGDLFQSI: 76 nM; ALTAVAEEV: 1310 nM. The same measure, in the same setting: with ALWGPDPAAA the figure was 1010 nM.

Consider ALWGPDPAAAF, for which the IC50 in the assay with HLA-A*24:02 came to 15.1 µM. Consider ALWMRLLPL, for which, in the assay with HLA-B*08:01, the IC50 turned out to be 107 nM. Turning to ALWMRLLPLL, the IC50 with HLA-A*24:02 worked out at 6.18 µM; with HLA-B*08:01, 33 nM. Consider ALYLVCGER, for which the IC50 stood at 2.79 µM in the assay with HLA-A*03:01 and 28.3 µM in the assay with HLA-A*11:01. APVIKARMM: the IC50 in the assay with HLA-B*07:02 came out at 18300 nM. AVAANIVLTV: the IC50 with HLA-A*02:01 worked out at 575 nM.

With ELAEYLYNI, the IC50 with HLA-A*02:01 stood at 637 nM. Regarding FIQVYEVERA, the half-inhibitory concentration (IC50) with HLA-A*02:01 worked out at 7020 nM. On the same count and under the same terms, with FLFAVGFYL the figure was 1.1 nM.

For FLIVLSVAL, the IC50 with HLA-A*02:01 was 26 nM. On the same count and under the same terms, next, FLLSLFSLWL: 16 nM; FLQDVMNIL: 70 nM; FLWSVFMLI: 26 nM. Regarding FLWSVFWLI, in the assay with HLA-A*02:01, the IC50 is 55 nM. Still for that read-out and setting: next, FMTSSWWRAPL: 84 nM. For FYTPKTRRE, in the assay with HLA-B*08:01, the IC50 worked out at 13000 nM. Still for that read-out and setting: with GERGFFYT the figure was 1380 nM. For GLLQVHHSCPL, the IC50 in the assay with HLA-A*02:01 was determined as 5.8 nM. As to GSHLVEALY, in the assay with HLA-A*01:01, the IC50 turned out to be 30.3 µM. With GVFIQVYEV, in the assay with HLA-A*02:01, the IC50 amounted to 460 nM.

As for HIAGSLAVV, the IC50 with HLA-A*02:01 stood at 216 nM.

Turning to HLASEKVYAI, the IC50 in the assay with HLA-A*02:01 was 4060 nM.

Consider HLCGSHLVEA, for which the IC50 with HLA-A*02:01 turned out to be 7540 nM. For HLSYHRLLPL, the IC50 in the assay with HLA-A*02:01 amounted to 4260 nM. For the sequence HPRYFNQLST, the IC50 in the assay with HLA-B*07:02 worked out at 1250 nM. Regarding ILAVDGVLSV, the IC50 in the assay with HLA-A*02:01 is 2.2 nM. Same read-out and setting: next, ILDKKVEKV: 11200 nM. Still for that read-out and setting: with ILKDFSILL the figure was 39 nM. Same read-out and setting: with ILMHCQTTL the figure was 478 nM; with ILVLASTITI, 675 nM. For IPSDLERRIL, in the assay with HLA-B*07:02, the half-maximal inhibitory concentration (IC50) was 3860 nM. As to IQATVMIIV, in the assay with HLA-A*02:01, the IC50 was 9040 nM. KLANIQCLCL: the IC50 in the assay with HLA-A*02:01 turned out to be 97 nM. For KLQVFLIVL, the 50% inhibitory concentration (IC50) with HLA-A*02:01 came to 1370 nM.

As to KMYAFTLES, the IC50 in the assay with HLA-A*02:01 is 880 nM.

Take KVLHELFGMDI: the IC50 with HLA-A*02:01 came out at 11 nM. Still for that read-out and setting: with LASEKVYAI the figure was 6930 nM. For LIFDLGGGT, the IC50 with HLA-A*02:01 was found to be 5420 nM. Regarding LLDVAPLSL, in the assay with HLA-A*02:01, the half-maximal inhibitory concentration (IC50) was found to be 51 nM. For LLGRFELIGI, the half-maximal inhibitory concentration (IC50) with HLA-A*02:01 came to 233 nM. Turning to LLHVHHSCPL, the IC50 with HLA-A*02:01 was determined as 7840 nM. Turning to LLIDLTSFL, the IC50 in the assay with HLA-A*02:01 was found to be 8.1 nM. The same measure, in the same setting: next, LLLLDVAPL: 10 nM.

On to LLPPLLEHL, for which, in the assay with HLA-A*02:01, the IC50 was determined as 444 nM. The same measure, in the same setting: next, LLQEYNWEL: 35 nM; LLQVHHSCPL: 3090 nM. Regarding LLSILCIWV, the IC50 with HLA-A*02:01 stood at 734 nM. Regarding LLSLFSLWL, the IC50 in the assay with HLA-A*02:01 came out at 152 nM. As to LMFWSPSHSCA, the half-maximal inhibitory concentration (IC50) with HLA-A*02:01 was 143 nM.

Regarding LMGDKSENV, in the assay with HLA-A*02:01, the IC50 is 7370 nM. LNIDLLWSV: in the assay with HLA-A*02:01, the IC50 worked out at 684 nM. Take LPLLALLAL: the results for the IC50 with HLA-B*07:02, with HLA-B*35:01 and with HLA-B*51:01 were 610 nM, 12.3 µM and 1160 nM, respectively. For LVCGERGFFY, the results for the 50% inhibitory concentration (IC50) with HLA-A*03:01 and with HLA-A*11:01 were 27.4 µM and 27.2 µM, respectively.

As to LVEALYLVC, in the assay with HLA-A*02:01, the half-maximal inhibitory concentration (IC50) amounted to 11800 nM. Consider LWMRLLPLL, for which the IC50 in the assay with HLA-A*24:02 came out at 0.545 µM. For the sequence LYLVCGERGF, the IC50 in the assay with HLA-A*24:02 amounted to 5.25 µM. As for MVWESGCTV, the IC50 in the assay with HLA-A*02:01 worked out at 126 nM.

Turning to NLAQDLATV, the IC50 in the assay with HLA-A*02:01 came out at 67 nM. On the same count and under the same terms, next, NLLGRFELI: 764 nM; NLLGRFELIGI: 1.8 nM. For the sequence RFKMFPEVK, the concentration for half-maximal inhibition (IC50) with HLA-A*11:01 came out at 18.3 µM. RLGPVARTRV: the IC50 with HLA-A*02:01 was 581 nM.

For RLLPLLALL, the IC50 with HLA-A*24:02 was determined as 10.2 µM. Take RLLPLWAALPL: the IC50 with HLA-A*02:01 was 5.4 nM. The same measure, in the same setting: next, RLLYPDYQI: 124 nM.

Regarding RLQREWHTL, the IC50 with HLA-A*02:01 worked out at 1230 nM.

As to RLRPLCCTA, in the assay with HLA-A*02:01, the IC50 is 8230 nM. Same read-out and setting: with RMMEYGTTMV the figure was 709 nM; with SHLVEALYLV, 2150 nM; with SISVLISAL, 1560 nM. Take SLASLLPHV: the IC50 with HLA-A*02:01 amounted to 9.1 nM.

Consider SLEEEIRFL, for which, in the assay with HLA-A*02:01, the IC50 stood at 472 nM.

On to SLFEGVDFYT, for which the half-inhibitory concentration (IC50) in the assay with HLA-A*02:01 turned out to be 51 nM.

In the case of SLSPLQAEL, the IC50 in the assay with HLA-A*02:01 came out at 101 nM. On the same count and under the same terms, next, SLTAISTTL: 242 nM.

For the sequence SLTTISTTL, in the assay with HLA-A*02:01, the IC50 worked out at 237 nM. For SLYHVYEVNL, in the assay with HLA-A*02:01, the half-maximal inhibitory concentration (IC50) is 209 nM.

SMCRFSPLTL: in the assay with HLA-A*02:01, the IC50 came out at 1150 nM.

In the case of SMPQGTFPV, the IC50 with HLA-A*02:01 was found to be 631 nM. Still for that read-out and setting: next, STVASRLGPV: 25100 nM; STVASWLGPV: 9230 nM. The same measure, in the same setting: next, SVASLLPHV: 1760 nM.

With TIADFWQMV, the IC50 with HLA-A*02:01 is 4690 nM. Turning to TLSSRVCCRT, in the assay with HLA-A*02:01, the IC50 was 2780 nM. TMHSLTIQM: the IC50 with HLA-A*02:01 stood at 104 nM.

TVASRLGPV: in the assay with HLA-A*02:01, the IC50 turned out to be 7700 nM. VAANIVLTV: in the assay with HLA-A*02:01, the IC50 was 320 nM. For VCGERGFFYT, the IC50 in the assay with HLA-B*18:01 is 626 nM. For the sequence VIVMLTPLV, the IC50 with HLA-A*02:01 was found to be 2120 nM.

In the case of VLHELFGMDI, the IC50 in the assay with HLA-A*02:01 is 287 nM. The same measure, in the same setting: with VLNSVASLL the figure was 1140 nM; with VLVEGSTRI, 17200 nM. Same read-out and setting: next, VMNILLQYV: 2020 nM; VMNILLQYVV: 2310 nM. For VVTGVLVYL, the half-inhibitory concentration (IC50) with HLA-A*02:01 was determined as 9 nM.

WLLPLWAAL: the IC50 in the assay with HLA-A*02:01 amounted to 4.2 nM. Still for that read-out and setting: with WLLPLWAALPL the figure was 3.2 nM.

Regarding WMRLLPLLAL, the IC50 in the assay with HLA-B*07:02 stood at 2360 nM.

In the case of YIPSCTVVGM, the IC50 with HLA-A*02:01 was determined as 9510 nM. On the same count and under the same terms, with YLLLRVLNI the figure was 57 nM.

One may read the IC50 as the concentration at which inhibition is half-maximal.
